Experimental data published in the DeepSol protein solubility set.

Test: soluble on expression in E. coli; label from the status in PepcDB or PDB records

Row | Sequence | soluble on expression in E. coli
1 | GTIVITGTITDTTCVIEDPSGPNHTKVVQLPKISKNALKANGDQAGRTPFIIKLKDCPSSLGNGVKAYFEPGPTTDYSTGDLRAYKMVYATNPQTQLSNITAATEAQGVQVRISNLNDSKITMGANEATQQAAGFDPEVQTGGTSRTVTMRYLASYVKKNGDVEASAITTYVGFSVVYP | not soluble
2 | STTGLVTPGDVIGKATEFKAGKGAYVNDATIYASLTGTCRIVSPLPESIDQRAIVEVTGHKAHGPIPETGSVVIARVTKVMTKMAAVDILCVGSKAVRENFAGVIRQQDVRATEIDKVDMHQSFHAGDIVRAMVLSLGDARAYYLSTAKNELGVVSAESAAGETMVPISWTEMQCPLSGQTEQRKVAKVGN | soluble
3 | MSKDDPINSIFFEHQEAALCAQHALNMLLQDALYKWQDLRDLAIQMDKMEQQILGNANPTPGRSENMNESGYFSIQVLEKALETFSLKLTNIENPAMVDYKNNPLTARAYICNLREHWFVLRKFGNQWFELNSVNRGPKLLSDTYVSMFLHQVSSEGYSIFVVQGVLPRSDADDLISLCPVVPPKVTPKKEQKLEKVMTKFFNTVGKRLGGGSGAPPDSQEEKDLAIAFAMSMETKDGSEVSRSSAEIDEENLRKAIELSQAPGPSEPAEIPLLTRSRSSTPPGASEPFSNAEQQRRDRQKFLERFEKKKEERNDEK | not soluble
4 | MGSDKIHHHHHHMETREQAKFFHLDEFSGLSLLQASYHRQRFARHVHETFCIGVIEEGVQRFYRTGGEHVAPKGDIILVNADEIHTGSPGVETGWAYRAIYPHPDLMLLLSRDLINANGTVPWFPEAVVHDPGLAEQFRLVFNLLTRDGDRLLKESLLLSSIASLVMRHGRTPAFARELPSVGQPLRIIKDLIASCPEEDYSLTQLAEMAHLSPWHFLRQFKKQVGLPPHAWLIQARLKRARQLLRRGLPIPVVAARCRFSDQSHFNRHFKSSFGITPGEFIRTLPSLSA | not soluble
5 | MGSSHHHHHHSSGLVPRGSHMDFEEDYDAEFDDNQEGQLETPFPSVAGADDGDNDNDDSVAENMKKKQKREAVVDDGSENAFGIPEFTRKDKTLEEILEMMDSTPPIIPDAVIDYYLTKNGFNVADVRVKRLLALATQKFVSDIAKDAYEYSRIRSSVAVSNANNSQARARQLLQGQQQPGVQQISQQQHQQNEKTTASKVVLTVNDLSSAVAEYGLNIGRPDFYR | soluble
6 | MLTSFGQILRKLFCIDCSERLLDMADKLGVSVAFLSSVKIGKKSVPVGIFVRTLENFSQQDLAEFKKLLEKVGKKRGTLYRHVGKSYSRTFIYTSRTLKKHT | not soluble
7 | MSLEKKHSVNVEIENPPGRFFIPEDYVQNPVERLRLYRRLASSLDEEDLEEILEEMKDRFGEPPEEVKLLVDYFRLRVRASKLGIKKIRFDHSMVEIFPSRNSPFLNHPRYDRRSGSVVLYTRKDPVEFLMDMKGIITITTDPNSSSVDKLAAALEHHHHHH | soluble
8 | MTNTTMQPNRLRIALQKKGRLSQDCAILLKQCGVKINWNEQRLIAYAENLPIEILRVRDDDIPGLIFDGVVDLGIIGENVLEEEELGRRAANETVTYKKLRQLDFGDCRLSLAVDRDCHYENVKDLANRRIATSYPHLLKRYMNENGVSFKSCLLNGSVEVAPSAGIAYAICDLVSSGATLEANGLKEVDVIYRSKACLIQRAEPLESTKQALVDKLLTRIQGVQQAAESKYIMLHAPKEKLEKITALLPGVENPTILPLASDTTRVAMHVVSQENLFWETMEQLKEAGASSILVLPIEKMMELEHHHHHH | soluble
9 | MGSDKIHHHHHHMNQIIPTSANGCIPNVYFMGRWTTQTVESKPAMYTTNLGAQILFEVQNADYFTLEAVINPLSAPQTLSIYIDDELHLTPLTRSKNDFKLSSNQSHIVRIYFTGNTDQDEIWLGNDGLTIKDITIASGTLAAIKPAGPLVAFIGDSITAGCWVRSKAPSIGYGADLNYAAQLSRALDWEDYRIAYSAAGIIRYGTGGVPPAGKFVKYVNFSVKAPRINPDLVLINLGTNDARYEDDVFEMYFVWFINEVKKQFPHARIIIITPFNQAHSHVIKNVAKALKIELIPTLDWVIETNDEVHPNVEGSKAISDHLVAWFTEPQNRLQSE | not soluble
10 | MKRFARKETIYLRGEEARTLYRLEEGLVRVVELLPDGRLITLRHVLPGDYFGEEALEGKAYRYTAEAMTEAVVQGLEPRAMDHEALHRVARNLARQMRRVQAYEAHLQTGELRARIARYLLFLADTPLSARDRQGIYVTVSHEEIADATASIRESVSKVLADLRREGLIATAYRRVYLLDLAALEREAGSALEAA | soluble
11 | MGHHHHHHSHMIALKMFYTEETYEQFFDYGLDYVIDASDTICYKIHLMKECLKRDIPLISSMGAANKTDPTRFQIADISKTHTDPIAKVVRTKLRKEGIKKGVQVIFSDESPIVIREDVRKEVGNDEAKIRKAKMPPSSNAFVPSVAGLIMGGHVVMDLLKDIEIKRVKDK | soluble
12 | MAHHHHHHMFLIVDAGDMLVEGLFVEANNTTLHYREKFIVKNTDGSMAINAASMTRQLHPRKQMHLHPSSLPIAIHQDNRTPLQHMLRGTHHMQRPTVVSCNTPTMAIMKGTEDVVLRRDTTTRHAGAQFRALQDLLQLKRARAGHTHLTSRSKWIGLDRQKRTPHRF | not soluble
13 | GHMPAYVFSKESFLKFLEGHLEDDVVVVVSSDVTDFCKKLSESMVGEKEYCFAEFAFPADIFDADEDEIDEMMKYAIVFVEKEKLSEAGRNAIR | soluble
14 | MSDNLSARWHRILDMTNRETSDDVVIARSSFDDFSQSTPWRKFEISCGNRSFFVNPGWLAELSPYFADELYVRKPNVQRYVIDQATPDEVLEFLRCITFCPMRKPLTVKNVSLVLTFANRFEMRPVQARCENFIAQNATSLSRDKTKLFQVTCAMSQCDPNSSTMSVLVDKLAGIKDDELSRLHFAEMPGDVVAEVYAQKIQRTKDKKAQRQAGASDETAAGCCFMQWASSLFNRRRQRNQADQSILPPSGDQQHHRSELHA | not soluble
15 | MAHHHHHHMFFCPFCSTLLLVVPHVEGNALVCATCRYVHSVASASPQVPRNAFGEPILTIQHSFVAHNRQLMDAEEDPAMEAAASSSAAACHTTAAFTPVVKAETSAEGGQITTIPCQNEDNPCQSTKAYFIQIQMRSADEPATVFFKCVECGHQWRQD | not soluble
16 | MSLEVIKHDGPGRLGVIRLEPPVQTPALAGVDFTLSPFNSFFYPKDYKEYDFNLAPAIPLSYYTPDEIIKKAVKRLWEVDYSKFNAFYFPALKRTKHYEELFKIIEENDFDAIYIGNSKSMIKDYRGFVFTMRELREKFPNAVLITDLEPFFYPLAVYLGIDAFDIRSLKIYSYEGLGFTQFSPIIWDEPKEDPVEYAKKIIRLIRIAIHEGKLRYLVENFLPTSMNAGILRIADRENIEYLEKYTPVDDKTVVFISDYSMTRPEVYRWAKRVRERFEPPKDIELLLILPCSAKKPYSRSRSHTLYRSAVKEALGEKMHRVHELIVTSPYGVVPREWEWIAKYDIVVTGHWSEREVRLAGELLADVLEKYPDIPIIAHVEGGYREAVKLAMELSGRDVIFTAKGNSTTSRESLANLTKTLKEFDVRDVDKEYRRYRFYENIRKIFDFYFGLNAGYAVLPERAQVVGSKMLRLIVDNQQTGTFQEGVISVTPWGMQRIYDELHSYWVEIDFDVRGDIFAAGVGSADEKIRPNDWVGVVRDGKVVAVGRAVLSGEEMVKAKRGVAVKVKKKAKEGHHHHHH | soluble
17 | MSLQLSKAAEMCYEITNSYLHIDQKSQIIASTQEAIRLTRKYLLSEIFVRWSPLNGEISFSYNGGKDCQVLLLLYLSCLWEYFFIKAQNSQFDFEFQSFPMQRLPTVFIDQEETFPTLENFVLETSERYCLSLYESQRQSGASVNMADAFRDFIKIYPETEAIVIGIRHTDPFGEALKPIQRTDSNWPDFMRLQPLLHWDLTNIWSFLLYSNEPICGLYGKGFTSIGGINNSLPNPHLRKDSNNPALHFEWEIIHAFGKDAEGERSSAINTSPISVVDKERFSKYHDNYYPGWYLVDDTLERAGRIKNEGHHHHHH | soluble
18 | MDKFIKQLDPNLDYINHEINDGKCYITVASNRKEVTCPFCGQSSSRIHSTYNRIFQDLPIQGNKVFIIIRNRKMFCDNHDCSHTTFAERFDFISYKAKKTRRLEDEIVRLSINCSSVAASKALKENVVDIGKSTVCNLLKKETLVVDKKTVTVVCIDDFAIKKRKSYGTIMIDIFTHQILDMIDSRDYETVCEWLKTYPNLSVISRDGSVIYNNAIANAHPEALQISDRFHLLKNLTSYITEYLKKRLKPQVLIQAVSQETKEIKTIRQADENRKLTLKEKYEKIKQLLLEGKCKTEICRSLNMDIRAYDKLMAMTAEKREKSFQTKKMIIHEERVKQKMERVNEVRELKGIGLSNREISRRTGLNRKTVSRYLDENFNPVHAAYGKKRNGKLTPYIKAIDEYLEKGIMGSYIEEKIREMGYEGSSSTVRDYITDWKKRRKKYYDKSREDGTKTETIKRENILKLLYQPIEKSKNN | soluble
19 | MGSDKIHHHHHHMMGLKAHAMVLEKFNQPLVYKEFEISDIPRGSILVEILSAGVCGSDVHMFRGEDPRVPLPIILGHEGAGRVVEVNGEKRDLNGELLKPGDLIVWNRGITCGECYWCKVSKEPYLCPNRKVYGINRGCSEYPHLRGCYSSHIVLDPETDVLKVSEKDDLDVLAMAMCSGATAYHAFDEYPESFAGKTVVIQGAGPLGLFGVVIARSLGAENVIVIAGSPNRLKLAEEIGADLTLNRRETSVEERRKAIMDITHGRGADFILEATGDSRALLEGSELLRRGGFYSVAGVAVPQDPVPFKVYEWLVLKNATFKGIWVSDTSHFVKTVSITSRNYQLLSKLITHRLPLKEANKALELMESREALKVILYPEG | soluble
20 | GEEEKKRTARTDYWLQPEIIVKIITKKLGEKYHKKKAIVKEVIDKYTAVVKMIDSGDKLKLDQTHLETVIPAPGKRILVLNGGYRGNEGTLESINEKTFSATIVIETGPLKGRRVEGIQYEDISKLA | soluble
21 | MGRIKQMTPNVMRLLKACFVEQIPDEVCDEFHLKKDTEHMILITKDGGMPISKIKPLSDSQVLSVLSQILLSLYIGKRELQFSHNDLNPGNLLISETKKKSISYKKDGKSIKIKSHGRFLTLIDLQKSTFDEKEDKGLDCWKLNSRVRDQFLPLVKEDTKKILAKVAEEIEKTTILDWKLPGMLPIQ | not soluble
22 | MFLAGAFIAVGSLYAQSSDAEWQAGVAKLKETIQTNPAQANEEAEQLIKGKNKKNVELLVAIGEVYLKAGKLPEAQEYAALAKKVNGKSALASVLEGDIAFEQKNAGLASQKYEEAIYFDPSCTEAYLRYADIYKSANAALAIEKLEQLKAQEPSNTAVDKKLAEIYYLKNDFSKAAEAYSRFAMGPTATEEDLVKYAFALFLNHDFEKSLEVANMGLKKNARHAAFNRLAMYNYTDLKRFDEAIKAADAFFTESDKADYSYLDYMYYGHLLEALKKYDEAVGQYEKAIQLDPTKTDLYKNISSAYEQKNDYKKAISAYQKYYTSLDKLEHHHHHH | soluble
23 | MGSDKIHHHHHHMLSKMEINKLAMKESMTLLACPICGGEFSFSEPNSFICKNHHGFDIAKPGYLHLLKQVHKTKYDQALFESRKKVIASGFFEKLIERVTEIIAETKKEEVVIYDAGSGEGSHLARVVKNLQEKGRHVQAIGLDIAKEGVKQAARDYPGIVWTVADLANCPTQTETADVILNILSPSNYEEFKRLLKTDGFLLKVVPEANYLRELREFIYVDEKSSYSNESVTSRLAEKLTVEYVERVTYKAPIANELFADFLEMTPLGWHIDKDKKSELLINPPKELTVDLKIIIANRAHLL | not soluble
